Results published in PMC8017925, “Structural basis for differential recognition of phosphohistidine-containing peptides by 1-pHis and 3-pHis monoclonal antibodies” (Proceedings of the National Academy of Sciences of the …, 2021).
*1 amine or outer side, *2 acyl side, *3 side chain or, on linkers, in order; H or OH if unused. Where no end group is shown, it is not given here. [ ]: non-standard residue; d: D form. The star is where a group is joined. 1‑pHis = 1-phosphohistidine, O=C([C@H](Cc1cncn1P(=O)(O)O[*:3])N[*:1])[*:2]; Biotin = O=C1N[C@H]2[C@H](CS[C@H]2CCCCC(=O)*)N1

Assay: Stability of 1- and 3-pHis peptides with and without pHis mAbs (BLI read-out)
Format: physicochemical
Conditions: phosphorylated ACLYana, 0-24 h, no pHis mAbs; read-out BLI signal at end of association, normalized to 0 h
Procedure: Next, we examined the ability of these Fabs to recognize phosphorylated substrates using differential scanning fluorimetry (DSF).
Fig. S6. Stability of 1- and 3-pHis peptides in the presence of pHis mAbs. In the BLI experiment, analytes were SC50-3 (A and B) and SC44-8 (C and D) Fabs and ligand was the ACLYana peptide.
Prior to the experiment, the peptide was phosphorylated with phosphoramidate and divided into two sets - set A and set B. The set A peptide was incubated with 1- and 3-pHis mAbs separately for extended periods of time (0 - 24 h) and set B was not incubated with pHis mAbs. The ACLYana-pHis peptide incubated with the mixture of 1-pHis IgGs (A, continuous lines) and 3-pHis IgGs (C, continuous lines) has the higher signal intensity at all time points compared to […]
(discontinuous lines). The BLI signal intensity at the end of association phase was used to compare the rate of hydrolysis with (set A) and without incubation with pHis mAbs (set B). The signal intensities were normalized to the 0 h (B and D). The unphosphorylated peptide was used as a […]
the rate of dephosphorylation. In the absence of pHis mAb incubation, 1-pHis peptide hydrolyzed […]
(1 picture or pasted object on this page, not shown here)

**Q.** With “1-pHis peptide: 1-pHis isomer of phosphorylated ACLYana peptide (Biotin-AGAG[1‑pHis]AGAG)” as the substance, how does the “hydrolysis of pHis peptide in the absence of pHis mAb incubation” value read?
**A.** faster than 3-pHis peptide
